Assay results taken from the DeepSol protein solubility set.

Assay: soluble on expression in E. coli; label from the status in PepcDB or PDB records

Sequence: MHEWGLSEELKIQTKQMIEIAEKELSIMRNAIDKEDECILCKMEDIHHMLANVQTLAATYYIQAYLSPYTESSSFITTAIQHLSARKHGALIVVERNETLEALIQTGTTLNAHLTAPLLESIFYPGNPLHDGAVLVKNNHIVSAANILPLTKSTEVDPELGTRHRAAIGLSEKSDALILVVSEETGRTSFALNGILYTISL
- soluble on expression in E. coli: soluble

Sequence: MGSDKIHHHHHHMGILSDKDIAYLKDLFGKELKRKVKIVFFKTEDKTRCQYCEITEQVLEELVSVDPKLELEIHDFDSDKEAVEKYQVEMVPATILLPEDGKDYGIRFYGVPSGHEFGTLIQDIITVSEGKPQLSEESIQKLQSLEEPIRISVFVTPTCPYCPRAVLMAHNMAMASDKIIGEMIEANEYWELSEKFGVSSVPHIVVNRDPSKFFVGAYPEKEFINEVLRLAKG
- soluble on expression in E. coli: not soluble

Sequence: MAAAVFHMEILQLNDLSSRLNPLATKNVVLHVCLGVRYFPNSACKSYKDAQALCKDGDGMSLTGPAQSMEKAFFKESVPKVDKCVIFLDGLALNHDEPYNFEFEDETHDGTKNYRFNSEDPNSQTAPNYIVFEYHVSGAHVFDRS
- soluble on expression in E. coli: not soluble

Sequence: MAITVSIELNRDLEIPASYDEVFDLLADVPKSASHFPKVDKLVDLGNNAYRWEMEKVGVDKHAIQSVYACTYHADKEAGKITWSPIKGEGNGVVSGSWTLSAKGDNATAVKFQTSAELTVPLPSLLKLAISPVIKHEFNSLVDTYMANLKKAFLEHHHHHH
- soluble on expression in E. coli: soluble

Sequence: MGSSPAPFADIGKKAKDLLNKDYIFDHKFTLTMLSATGTEFVATGLKKDDFFFGDISTLYKGQNTIVDLKIDSHSSVSTKVTLKNLLPSAKAVISFKIPDHKSGKLDVQYVHPHATLNSSIGLNPTPLLDLSATIGSQNVCLGGEVSFDTASSSLTKYNAGIGFNNQGVSAALILEDKGESLRATYVHTVNPTTSFGAELIRRFSNYNNSFTVGSSHSVDQFTVVKTRFSNSGKAGMVVQREWRPKSHITFSAEYDSKAVTSSPKLGLALALKP
- soluble on expression in E. coli: soluble

Sequence: MSSAKHFTEVLIGGKVYTLSGFEGEEYLQKVSSYLNHKITECANSEGYRKQSADTRNVLLALNIADDYFKAKKQGDSLESDIELKDKEMYDLKHELISVQIKLENAEKELAKMKEENNDLQMQIVKLETEMKNRRK
- soluble on expression in E. coli: not soluble

Sequence: MDNVSNVRTGGCHCGAVRFEVTLSDGFDSIRRCTCSYCRMRGAVVAMAEMGGIKILQGEEVLTTYRFHTRAAQHFFCSRCGIYTHHQRRSNQNLYAVNVACLDGVSPFDFTEVPVMDGINHTNDTGQPTRRAGTLRFIASE
- soluble on expression in E. coli: not soluble

Sequence: MDPAKNEYGMGSTLTTLAYEKFAKAAKYNTQQNDLAAPTAQLDIAVSLSGFKEGDSNYPINPILKLTNNSTQTIPGGTRIEFLVPTSTSDTITDQSGMGLKVVESGGNQNSDGIAGEKDFHKAAFTLPTWKAWAPGSDVEVAMTYYLPAAGVPSGIRIISGTQTAGLKAEFPTLPEAVLEHHHHHH
- soluble on expression in E. coli: soluble

Sequence: MGAQGSRVDFKQVVLDVTSKPGKDDETFWDQAWWPDSVNEIFAMISGEDIRKLRDESPKNLATLVYKTVEKLQFSRNHPATIDQKKTINAIRLLTRIVPYLLEDAEWRGYFWSPIPHGDAAKPLAAVLLETLSDLLFCPEFTITHANGQKIDDLSTIDSCEYIWEAGVGSGNKPPMVALHYQNRTEILKLLLTCFAELIYAPVSDETRLRWVIHFTSVTNPHVLPIFTSLLNIVCAYDPVGYGLPYNYLLFNDSREPLVEIALQVLIVCLDKETQPNTDDSGYKDNYFINYLSRIHREEDFDFMLKGITRLLSNPIHSSSSYLPNSTKRVNFHQELLVLLWKCCEINQKFMFYVLKTSDVLDILVPILYHISDARNDSGRVGLIHMGVFIILLLSGERNFGVRLNKPYTAKANINVQTFTGTHADLLILVIHKLITTGNYRLQTLFDCFLTIMVNVSPYMKSLSMVAANKLVHLVEAFSTPWFLFSSPTNPQLVFSLLEVFNNVIQYQFDGNSNLIYTIIRKRNVFYQLSNLSTDAASIAKTLSGRKSKSANRDEMVDQLKSPTSTAPPEIPAADAPAAQTLGGVSTTTGLAATPALASMTGNVGNWEERPESSQDNEWIATQEWADAWKSKLPLQTIMRLLQVLVPQVEKICIDKGLTDESEILKFLQHGTLVGLLPVPHPIVIRRYQTNIGTNHWFRIYMWGVIYLKHTQPPIWYDTDVKLFEVQRA
- soluble on expression in E. coli: not soluble

Sequence: MAHHHHHHMRMSLTTRRPFCPVLLNIGSSRAVTLSHFHAKVCPSITATVKQTIRELDDEASPNHQRRQESCFSSGELRLRPYGFSPERPQLQHESWSCAWHSYLNAVRLRGEVSAAGVAPLPPTATSANSTSHNDDEFFPMTGTLTLPVPVVVPTSNNEPSNETIMMEFFRVDAFIPVRVQMYHVMRRLIKMQAVWNNIVAIGIVVPTHEVEYFISAARAAHASDGERTPHALLSRKPSVLVYDPEGLRFQAPESKRLRK
- soluble on expression in E. coli: not soluble

Sequence: MIHTEPSAQPSTMDTAAFLKHIESAFRRIFSDGIDLMRYLPEDKWLALKQAGLLLPFLDKKYGGRKGSQFEIQEVLRIAGHYGVPVTLRTGIEGALVLQPLQEFGDEAQVAQGLEMIFKGEGGGLGVTEPETSGAAIAREMQSYYEYIDGQTIYVNAAKYWQGNSQSDFLLVAAKERKNGKLAKVIDLLLVPKTYIRCETLASEGLRAVRYAVNRIDAEMPATAVMKLSQSDAAGLRAFQNIFIRSRLQLIGMTHGIMEYILENLERYVRNDIKFVDYERREIRRRHQVSEILYRYVCHSVSPVAPVAHQLMEANIVKTLATEYTYAAAQMLQKLLGAKGFERGHTAGNIAIDIRPFTIFEGPNDMLYAEIYDQFVRATAEEKEAGMKLDKNQTLLDRLQTDARFAAVARDYTLPEDIRSFLQEHTLTDACALQKVFIGKIIARLFVFVQAKHEDTAAFLLNDIRKDILDCRYCG
- soluble on expression in E. coli: not soluble

Sequence: MSLRVYVTGNITVDETWSIPDIPKKGASIHGVKVSQDIGGKGANQAIILSRCGIETRLIAATGNDSNGAWIRQQIKNEPLMLLPDGHFNQHSDTSIILNSADGDNAIITTTAAADTFSLDEMIPHMADAVAGDILLQQGNFSLDKTRALFQYARSRGMTTVFNPSPVNPDFCHLWPLIDIAVVNESEAELLQPYGVKTLVITQGAAGAWLVQEGQRQFCPAVPAEALDTTGAGDTFLAVMLASALLRGVAPDALALAHASRAAAITVSRRGTLSAFPGSRELAALLTTDGAEGHHHHHH
- soluble on expression in E. coli: soluble

Sequence: MGSDKIHHHHHHMGKAMDLPAETREAANNVIKMQRDADWQNDFKKNSDDGIKTQSLYNIRLIMEHDEMLKGLVAFDEFSEQIVKTPQAENSLFKKGFWNDGDDTLLRSYIEDHYNLLFSKENITDAVVTEARRKTINPVKARIEAVEWDGQPRAERYFINYLGAEDNHYTRTITKKWLTGLIARAYVPGVKFEIVPILEGSQGLGKSTAGKNLYPDKFNDSLKGMGKQKDDYQQLQGSWIIEVAELSAMKKTDIEGIKNFISAQSDTYRNSYGRYALPHPRKCVFIGTTNQTDYLKDATGERRFYPIKCGVNKAKLDVWHPDENYMLQVLAEAAYWFKNGEPLYLDQATMKEAKAYQMAAEAVDPMRDAIEAFLAMEVPTDWENMSTSLKQSYVSDYGHHSKWLQDQVSNERKLLNQTTTREIMEVVFHKTVDRYLTGRTNSEAKRIKLLMDNMDGWKSQRIRMNGQRLHGYMREV
- soluble on expression in E. coli: not soluble

Sequence: MEEDNQSPSPSESSIKTDYDAKIRVLYSTKNNKSEEESVFAHRLVLSTFSPLFQQLLQDATSSSTSTTSSTSSDDVISISLDLTAFPNALAAFKVILEALYTGDIKMKSVAANEVLAVSRHCQISSLEPKIMSAVAPLPLNLANILNCSQSVPLNSNPFLQYTSPPIQNYLSSMISLWSNPFFSALFGNTTGTPSLPFSPQSDTENSRTQSEGSSPRANSTSTPPTTDLEKIVPNDDKEGWCRNKKYIEKVDGGFMCTVCRKIYGRYNSVSYHVTIYHRNPPIKCEENGCNFSTREARYIHFHKYYRHHIPLPENIDLGSRKCPFCRHVSKSPAMLEKHIARHETDGTSGGTPGALKRAQSKKKIVPTMTTDVIDPNVSSIFAPTNPAGNIPIQCSLCPFSTHSTDLLFIHLAMQHAQELAQCSGLLADNSSETSTSSSSDGEPMITDIDLDVKPLIDQSLMLHLNTPLSN
- soluble on expression in E. coli: not soluble

Sequence: MNVRDLSFKLNSIFDINKYEHIDKNLNGLQVGNINAKVNKVAFAVDASFSTLKEAKGNDFLITHHGIFWSKKERIVSNMYDKTKFLIENNLALYSVHLPMDAHSVYSHSKVFSDFLGLKNSFAFANYGGVNLGIIADSVFSFSEILEKIKKENKHILFSKKFKESVNKVAIVSGSGYSFFEEALCHDVDLFITGDTSHQIYSLAEEFGVNLIFAGHYFTETFGLIKLMEDFKIQEDLEVKFICKNTNLLEHHHHHH
- soluble on expression in E. coli: not soluble

Sequence: MGSDKIHHHHHHMDNLIITPNYVTEFNCVGPACEDSCCKNWTVYFDKKSYKHTISNPAFADLAKIAFVEIKESKENWASIKLDEQGACPFLTQEELCKIHQVGGEAALSYTCKTYPKKDTLVGKDKYQSLSLSCPEAARLVLFDPNAFQFQSHNGGNKKPAKPSPVWLEKSYQYSLDLLINANLDWELALLAIGLLIKTAEDASQYQIPIEELDKRHDQLKRFAESGLMAQQFEKTPYASQLQANLFVTIHSELCKINPRSGKARFGELNLAIEQACNEDNHYSIDLINQAWNQVAQPALKENPDVFERYILYYLFHNHFPGPVTQTPSQSFILLAIDCFMIRCYLSAMALKNNGINQREIILCFQVYQVIRQHRSSFVARLEELVEECGLNSISAVMTLLKTN
- soluble on expression in E. coli: not soluble

Sequence: MGSDKIHHHHHHMLTTPEMREQFRNDGVTIFRNCLNEAQLAQCYDGFKWDMANPGPHVYKGGLIGTTLHTHIDIANPEAKSELDDLAAALPFGQIFQELWDSKNVWYFAEEIFAKEGGKSGRGPWHQDTANLPWAGRHWGNAWISFQKLPKKNSLEIVRGSHLGIQYDGASFDSAEDPTDPLYGDGTYPRLPHIDNELARDPNSWDIVSFDINPGDIVLLHPRSLHGGAQVDADCPTRHTLVLRFFGDDATFRELPTCNPKYARNGPLFQKEMAKLNQGDAFRSPVFRQVAGV
- soluble on expression in E. coli: not soluble

Sequence: MSLGAYLSQPNTVKCSGDGVGAPRLPLPYGFSAMQGWRVSMEDAHNCIPELDSETAMFSVYDGHGGEEVALYCAKYLPDIIKDQKAYKEGKLQKALEDAFLAIDAKLTTEEVIKELAQIAGRPGMEGKEEPGSDSGTTAVVALIRGKQLIVANAGDSRCVVSEAGKALDMSYDHKPEDEVELARIKNAGGKVTMDGRVNGGLNLSRAIGDHFYKRNKNLPPEEQMISALPDIKVLTLTDDHEFMVIACDGIWNVMSSQEVVDFIQSKISQRDENGELRLLSSIVEELLDQCLAPDTSGDGTGCDNMTCIIICFKPRNTAELQPESGKRKLEEVLSTEGAEEEGHHHHHH
- soluble on expression in E. coli: soluble

Sequence: VTYEEEAVPAPVRGRLEVLSDLLYVASPDRAMVFTRTKAETEEIAQGLLRLGHPAQALHGDMSQGERERVMGAFRQGEVRVLVATDVAARGLDIPQVDLVVHYRMPDRAEAYQHRSGRTGRAGRGGRVVLLYGPRERRDVEALERAVGRRFKRVNPPTPEEVLEAKWRHLLARLARVPEKDYRLYQDFAGRLFAEGRVEVVAALLALLLGGAPAERSLLTGEEGWRTYKATGPRLSLPRLVALLKGQGLEVGKVAEAEGGFYVDLRPEARPEVAGLRLEPARRVEGLLEIPSRTRRPARA
- soluble on expression in E. coli: soluble

Sequence: MGSDKIHHHHHHMKNIFVFGADEFNLSLMRSLDSAHEYCFHELYQYSEVKTGKEFPVETLYEGALARLNSYPDSVDAIVGYLDFPVSTMLPLLCQSLGLPSPSFEAVLKCEHKYWSRLEQRRVIPEYIPNFCSVDPFKDDYRQQITLDYPFWLKPVKAVLSHLGFMVRDDSELEMAIIEIRKKIYCFAKPFNYLLQFADLPDEIAAVDGYHCIAEGIISHGQQCTLEGYVFDGKLCVYGTVDSIREGEHGSSFSRYQYPSSIPQPIQDKMIAVTERFLTAIDFDNGPFNIEYYWDKDSDHIWLLEINTRISKSHSPLFRNVDGKSHHQIMLDLALGKQPIFPHRKGLYRYSAKFMWRTHADAQVNRVPTEQEIQAITQRIGGTDIQLHVREGMRLSDLNYQDSYSYEIATVFIGGDSEQELLQKYHDVQQALPLELVPLL
- soluble on expression in E. coli: not soluble
